Source: publication doi:10.1101/2021.05.05.442822

Target: H3K9me0 peptide
Experiment: FP
Settings: enzyme; modification not given

Kd: 66 µM
B1: Full-length human G9a with an N-terminal MBP tag (MBP:FL-G9a), Q96KQ7 1-1210 (protein)
chain: AAAAGAAAAAAAEGEAPAEMGALLLEKETRGATERVHGSLGDTPRSEETLPKATPDSLEPAGPSSPASVTVTVGDEGADTPVGATPLIGDESENLEGDGDLRGGRILLGHATKSFPSSPSKGGSCPSRAKMSMTGAGKSPPSVQSLAMRLLSMPGAQGAAAAGSEPPPATTSPEGQPKVHRARKTMSKPGNGQPPVPEKRPPEIQHFRMSDDVHSLGKVTSDLAKRRKLNSGGGLSEELGSARRSGEVTLTKGDPGSLEEWETVVGDDFSLYYDSYSVDERVDSDSKSEVEALTEQLSEEEEEEEEEEEEEEEEEEEEEEEEDEESGNQSDRSGSSGRRKAKKKWRKDSPWVKPSRKRRKREPPRAKEPRGVNGVGSSGPSEYMEVPLGSLELPSEGTLSPNHAGVSNDTSSLETERGFEELPLCSCRMEAPKIDRISERAGHKCMATESVDGELSGCNAAILKRETMRPSSRVALMVLCETHRARMVKHHCCPGCGYFCTAGTFLECHPDFRVAHRFHKACVSQLNGMVFCPHCGEDASEAQEVTIPRGDGVTPPAGTAAPAPPPLSQDVPGRADTSQPSARMRGHGEPRRPPCDPLADTIDSSGPSLTLPNGGCLSAVGLPLGPGREALEKALVIQESERRKKLRFHPRQLYLSVKQGELQKVILMLLDNLDPNFQSDQQSKRTPLHAAAQKGSVEICHVLLQAGANINAVDKQQRTPLMEAVVNNHLEVARYMVQRGGCVYSKEEDGSTCLHHAAKIGNLEMVSLLLSTGQVDVNAQDSGGWTPIIWAAEHKHIEVIRMLLTRGADVTLTDNEENICLHWASFTGSAAIAEVLLNARCDLHAVNYHGDTPLHIAARESYHDCVLLFLSRGANPELRNKEGDTAWDLTPERSDVWFALQLNRKLRLGVGNRAIRTEKIICRDVARGYENVPIPCVNGVDGEPCPEDYKYISENCETSTMNIDRNITHLQHCTCVDDCSSSNCLCGQLSIRCWYDKDGRLLQEFNKIEPPLIFECNQACSCWRNCKNRVVQSGIKVRLQLYRTAKMGWGVRALQTIPQGTFICEYVGELISDAEADVREDDSYLFDLDNKDGEVYCIDARYYGNISRFINHLCDPNIIPVRVFMLHQDLRFPRIAFFSSRDIRTGEELGFDYGDRFWDIKSKYFTCQCGSEKCKHSAEAIALEQSRLARLDPHPELLPELGSLPPVNT
